Data as given in PMC10397247.

Assays:
P7A-bA = target: T1, P7A-bA; test: two-hybrid library CCNG1;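 further: natural log of median RNA to DNA barcode read ratio; higher means stronger binding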
T1 chain: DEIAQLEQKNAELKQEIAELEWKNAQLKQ

P4A-bA = target: T2, P4A-bA; test: two-hybrid library CCNG1;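 further: natural log of median RNA to DNA barcode read ratio; higher means stronger binding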
T2 chain: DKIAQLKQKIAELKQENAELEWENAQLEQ

P9A-bA = target: T3, P9A-bA; test: two-hybrid library CCNG1;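 further: natural log of median RNA to DNA barcode read ratio; higher means stronger binding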
T3 chain: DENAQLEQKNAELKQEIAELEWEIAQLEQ

P5A-bA = target: T4, P5A-bA; test: two-hybrid library CCNG1;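 further: natural log of median RNA to DNA barcode read ratio; higher means stronger binding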
T4 chain: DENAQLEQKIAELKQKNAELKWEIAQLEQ

P8A-bA = target: T5, P8A-bA; test: two-hybrid library CCNG1
T5 chain: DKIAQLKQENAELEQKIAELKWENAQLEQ

P6A-bA = target: T6, P6A-bA; test: two-hybrid library CCNG1
T6 chain: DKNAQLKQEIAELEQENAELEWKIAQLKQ

4H754-bA = target: T7, 4H754-bA; test: two-hybrid library CCNG1
T7 chain: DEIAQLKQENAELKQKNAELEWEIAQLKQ

4H2729-bA = target: T8, 4H2729-bA; test: two-hybrid library CCNG1
T8 chain: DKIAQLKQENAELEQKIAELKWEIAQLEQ

4H3782-bA = target: T9, 4H3782-bA; test: two-hybrid library CCNG1
T9 chain: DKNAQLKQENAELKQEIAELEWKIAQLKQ

4H2618-bA = target: T10, 4H2618-bA; test: two-hybrid library CCNG1
T10 chain: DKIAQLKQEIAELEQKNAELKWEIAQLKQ

4H3189-bA = target: T11, 4H3189-bA; test: two-hybrid library CCNG1
T11 chain: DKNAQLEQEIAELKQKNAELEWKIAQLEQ

4H797-bA = target: T12, 4H797-bA; test: two-hybrid library CCNG1
T12 chain: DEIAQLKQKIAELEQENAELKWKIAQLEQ

4H3354-bA = target: T13, 4H3354-bA; test: two-hybrid library CCNG1
T13 chain: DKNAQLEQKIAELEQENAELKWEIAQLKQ

4H3112-bA = target: T14, 4H3112-bA; test: two-hybrid library CCNG1
T14 chain: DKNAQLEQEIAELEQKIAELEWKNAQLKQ

4H908-bA = target: T15, 4H908-bA; test: two-hybrid library CCNG1
T15 chain: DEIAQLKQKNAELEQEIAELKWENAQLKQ

4H331-bA = target: T16, 4H331-bA; test: two-hybrid library CCNG1
T16 chain: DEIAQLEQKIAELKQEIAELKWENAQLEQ

4H454-bA = target: T17, 4H454-bA; test: two-hybrid library CCNG1
T17 chain: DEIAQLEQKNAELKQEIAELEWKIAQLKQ

4H717-bA = target: T18, 4H717-bA; test: two-hybrid library CCNG1
T18 chain: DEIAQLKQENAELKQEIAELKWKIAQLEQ

4H3185-bA = target: T19, 4H3185-bA; test: two-hybrid library CCNG1
T19 chain: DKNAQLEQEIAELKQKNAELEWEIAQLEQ

4H3427-bA = target: T20, 4H3427-bA; test: two-hybrid library CCNG1
T20 chain: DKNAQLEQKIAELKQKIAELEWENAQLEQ

4H72-bA = target: T21, 4H72-bA; test: two-hybrid library CCNG1
T21 chain: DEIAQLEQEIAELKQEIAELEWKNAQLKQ

4H2667-bA = target: T22, 4H2667-bA; test: two-hybrid library CCNG1
T22 chain: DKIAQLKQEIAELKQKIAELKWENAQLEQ

4H953-bA = target: T23, 4H953-bA; test: two-hybrid library CCNG1
T23 chain: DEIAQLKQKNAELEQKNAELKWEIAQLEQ

4H687-bA = target: T24, 4H687-bA; test: two-hybrid library CCNG1
T24 chain: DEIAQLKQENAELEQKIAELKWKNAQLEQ

4H967-bA = target: T25, 4H967-bA; test: two-hybrid library CCNG1
T25 chain: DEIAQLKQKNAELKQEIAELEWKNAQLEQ

4H338-bA = target: T26, 4H338-bA; test: two-hybrid library CCNG1
T26 chain: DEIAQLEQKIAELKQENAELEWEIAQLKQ

4H883-bA = target: T27, 4H883-bA; test: two-hybrid library CCNG1
T27 chain: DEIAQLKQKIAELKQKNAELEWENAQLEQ

4H3855-bA = target: T28, 4H3855-bA; test: two-hybrid library CCNG1
T28 chain: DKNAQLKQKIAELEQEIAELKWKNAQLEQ

4H918-bA = target: T29, 4H918-bA; test: two-hybrid library CCNG1
T29 chain: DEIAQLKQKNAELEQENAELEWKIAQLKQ

4H568-bA = target: T30, 4H568-bA; test: two-hybrid library CCNG1
T30 chain: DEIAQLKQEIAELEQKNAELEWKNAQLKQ

4H4001-bA = target: T31, 4H4001-bA; test: two-hybrid library CCNG1
T31 chain: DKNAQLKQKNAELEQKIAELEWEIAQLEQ

4H607-bA = target: T32, 4H607-bA; test: two-hybrid library CCNG1
T32 chain: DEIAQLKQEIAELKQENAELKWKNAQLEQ

4H_APH = target: T33, 4H_APH; test: two-hybrid library CCmax; details: mean of both orientations
T33 chain: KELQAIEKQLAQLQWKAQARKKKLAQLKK

4H3365-AA = target: T34, 4H3365-AA; test: two-hybrid library CCmax; details: mean of both orientations
T34 chain: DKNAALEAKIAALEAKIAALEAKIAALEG

4H486-AA = target: T35, 4H486-AA; test: two-hybrid library CCmax; details: mean of both orientations
T35 chain: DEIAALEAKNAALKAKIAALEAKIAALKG

4H_GCN4 = test: two-hybrid library CCmax
4H58-AA = target: T36, 4H58-AA; test: two-hybrid library CCmax; details: mean of both orientations
T36 chain: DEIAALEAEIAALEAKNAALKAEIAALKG

4H3705-AA = target: T37, 4H3705-AA; test: two-hybrid library CCmax; details: mean of both orientations
T37 chain: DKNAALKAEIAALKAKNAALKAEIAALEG

4H355-AA = target: T38, 4H355-AA; test: two-hybrid library CCmax; details: mean of both orientations
T38 chain: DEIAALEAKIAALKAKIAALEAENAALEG

4H_BCR = target: T39, 4H_BCR; test: two-hybrid library CCmax; details: mean of both orientations
T39 chain: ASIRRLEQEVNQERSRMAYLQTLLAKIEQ

4H3020-AA = target: T40, 4H3020-AA; test: two-hybrid library CCmax; details: mean of both orientations
T40 chain: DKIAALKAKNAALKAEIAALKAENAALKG

4H3651-AA = target: T41, 4H3651-AA; test: two-hybrid library CCmax; details: mean of both orientations
T41 chain: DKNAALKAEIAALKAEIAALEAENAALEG

4H3782-AA = target: T42, 4H3782-AA; test: two-hybrid library CCmax; details: mean of both orientations
T42 chain: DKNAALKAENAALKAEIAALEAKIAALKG

4H535-AA = target: T43, 4H535-AA; test: two-hybrid library CCmax; details: mean of both orientations
T43 chain: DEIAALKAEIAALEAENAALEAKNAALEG

4H2721-AA = target: T44, 4H2721-AA; test: two-hybrid library CCmax
T44 chain: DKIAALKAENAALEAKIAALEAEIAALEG

4H2750-AA = target: T45, 4H2750-AA; test: two-hybrid library CCmax; details: mean of both orientations
T45 chain: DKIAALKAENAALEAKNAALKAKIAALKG

4H2898-AA = target: T46, 4H2898-AA; test: two-hybrid library CCmax; details: mean of both orientations
T46 chain: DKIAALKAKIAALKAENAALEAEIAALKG

4H465-AA = target: T47, 4H465-AA; test: two-hybrid library CCmax; details: mean of both orientations
T47 chain: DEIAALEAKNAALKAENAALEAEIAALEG

4H895-AA = target: T48, 4H895-AA; test: two-hybrid library CCmax; details: mean of both orientations
T48 chain: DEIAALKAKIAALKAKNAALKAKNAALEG

GCN2_T = test: two-hybrid library CCmax; details: mean of both orientations
4H3057-bA = target: T49, 4H3057-bA; test: two-hybrid library CCNG1
T49 chain: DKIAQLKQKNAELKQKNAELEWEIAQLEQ

4H2717-bA = target: T50, 4H2717-bA; test: two-hybrid library CCNG1
T50 chain: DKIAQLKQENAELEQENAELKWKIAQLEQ

4H2576-bA = target: T51, 4H2576-bA; test: two-hybrid library CCNG1
T51 chain: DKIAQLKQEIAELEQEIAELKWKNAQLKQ

4H370-bA = target: T52, 4H370-bA; test: two-hybrid library CCNG1
T52 chain: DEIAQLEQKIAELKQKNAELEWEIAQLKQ

4H2610-bA = target: T53, 4H2610-bA; test: two-hybrid library CCNG1
T53 chain: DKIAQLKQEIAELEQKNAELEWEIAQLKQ

4H3606-bA = target: T54, 4H3606-bA; test: two-hybrid library CCNG1
T54 chain: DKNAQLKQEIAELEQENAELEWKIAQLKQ

4H3843-bA = target: T55, 4H3843-bA; test: two-hybrid library CCNG1
T55 chain: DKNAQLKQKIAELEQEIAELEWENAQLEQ

4H2760-bN = target: T56, 4H2760-bN; test: two-hybrid library CCNG1
T56 chain: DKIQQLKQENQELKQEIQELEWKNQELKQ

4H462-bA = target: T57, 4H462-bA; test: two-hybrid library CCNG1
T57 chain: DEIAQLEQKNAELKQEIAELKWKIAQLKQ

4H2697-bA = target: T58, 4H2697-bA; test: two-hybrid library CCNG1
T58 chain: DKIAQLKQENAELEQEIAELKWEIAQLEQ

4H_GCN4, sequence (chain, as listed by the source): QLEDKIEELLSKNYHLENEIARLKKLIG

B1: P4A-bA (peptide)
chain: DKIAQLKQKIAELKQENAELEWENAQLEQ
P7A-bA
  interaction score: -1.25
P4A-bA
  interaction score: -0.883
P9A-bA
  interaction score: -0.899
P5A-bA
  interaction score: -1.23
P8A-bA
  interaction score: -0.955
P6A-bA
  interaction score: -2.07

B2: 4H2618-bA (peptide)
chain: DKIAQLKQEIAELEQKNAELKWEIAQLKQ
4H754-bA
  interaction score: -0.396
4H2729-bA
  interaction score: 1.35
4H3782-bA
  interaction score: -0.735
4H2618-bA
  interaction score: 0.484
4H3189-bA
  interaction score: -2.6
4H797-bA
  interaction score: 0.0328
4H3354-bA
  interaction score: 1.21
4H3112-bA
  interaction score: -0.804
4H908-bA
  interaction score: -0.916
4H331-bA
  interaction score: 0.866
4H454-bA
  interaction score: 0.854
4H717-bA
  interaction score: -1.08
4H3185-bA
  interaction score: 0.858
4H3427-bA
  interaction score: 0.72
4H72-bA
  interaction score: 0.102
4H2667-bA
  interaction score: 0.0194
4H953-bA
  interaction score: -1.3
4H687-bA
  interaction score: 0.769
4H967-bA
  interaction score: -0.631
4H338-bA
  interaction score: 1.02
4H883-bA
  interaction score: 0.137
4H3855-bA
  interaction score: -0.835
4H918-bA
  interaction score: 1.61
4H568-bA
  interaction score: -0.965
4H4001-bA
  interaction score: 0.142
4H607-bA
  interaction score: -1.07

B3: 4H2721-AA (peptide)
chain: DKIAALKAENAALEAKIAALEAEIAALEG
4H_APH
  interaction score: -2.01
4H3365-AA
  interaction score: -1.58
4H486-AA
  interaction score: 2.11
4H_GCN4
  interaction score: -1.31
4H58-AA
  interaction score: 0.0667
4H3705-AA
  interaction score: 1.59
4H355-AA
  interaction score: -0.56
4H_BCR
  interaction score: -1.38
4H3020-AA
  interaction score: -1.05
4H3651-AA
  interaction score: -1.51
4H3782-AA
  interaction score: 1.73
4H535-AA
  interaction score: -1.55
4H2721-AA
  interaction score: 0.879
4H2750-AA
  interaction score: 0.408
4H2898-AA
  interaction score: 0.892
4H465-AA
  interaction score: -0.696
4H895-AA
  interaction score: -1.62
GCN2_T
  interaction score: -0.835

B4: 4H2576-bA (peptide)
chain: DKIAQLKQEIAELEQEIAELKWKNAQLKQ
4H754-bA
  interaction score: -0.459
4H2729-bA
  interaction score: 1.22
4H3057-bA
  interaction score: 1.74
4H3782-bA
  interaction score: 0.345
4H2618-bA
  interaction score: -0.0165
4H3189-bA
  interaction score: -0.652
4H797-bA
  interaction score: -0.381
4H3354-bA
  interaction score: -0.69
4H3112-bA
  interaction score: 0.265
4H908-bA
  interaction score: 0.163
4H331-bA
  interaction score: 1.26
4H454-bA
  interaction score: 0.611
4H717-bA
  interaction score: -1.01
4H2717-bA
  interaction score: -1.39
4H3185-bA
  interaction score: -1.6
4H2576-bA
  interaction score: 1.66
4H3427-bA
  interaction score: 1.64
4H72-bA
  interaction score: 1.49
4H2667-bA
  interaction score: 0.89
4H370-bA
  interaction score: 1.32
4H2610-bA
  interaction score: -0.116
4H3606-bA
  interaction score: -0.614
4H953-bA
  interaction score: 0.283
4H687-bA
  interaction score: -0.678
4H3843-bA
  interaction score: 2.1
4H967-bA
  interaction score: 1.25
4H2760-bN
  interaction score: 0.547
4H338-bA
  interaction score: 0.28
4H883-bA
  interaction score: 0.662
4H3855-bA
  interaction score: 0.525
4H918-bA
  interaction score: -0.646
4H568-bA
  interaction score: -0.232
4H4001-bA
  interaction score: 1.77
4H607-bA
  interaction score: -0.213
4H462-bA
  interaction score: 0.799
4H2697-bA
  interaction score: 0.599
